The results in this text go back to patent US8106154B2, “Nitrogen-based linkers for attaching modifying groups to polypeptides and other macromolecules” (Affymax, Inc., priority 2007, dated 2012).

Holding throughout (format): cell-based
Assay [1] concerns primary human bone marrow pluripotent stem cells. How it is done:
EPO-R signaling stimulates the differentiation of bone marrow stem cells into proliferating red blood cell presursors. This assay measured the ability of test peptides to stimulate the proliferation and differentiation of red blood cell precursors from primary human bone marrow pluripotent stem cells. Test peptides were added to cultures of human bone marrow cells, and the cells are incubated for 16 days. Thereafter, the number of red blood cell colonies were counted. The concentration of test peptide at which the number of formed colonies is 90% of maximum, relative to that observed with EPO, was recorded as the EC90.

Assay [2] concerns the target T1, human EPO-R (Homo sapiens, UniProt P19235).
T1 construct: expressed in transfected cells; host or cells: murine pre-B-cell line
T1 sequence (P19235 25-508): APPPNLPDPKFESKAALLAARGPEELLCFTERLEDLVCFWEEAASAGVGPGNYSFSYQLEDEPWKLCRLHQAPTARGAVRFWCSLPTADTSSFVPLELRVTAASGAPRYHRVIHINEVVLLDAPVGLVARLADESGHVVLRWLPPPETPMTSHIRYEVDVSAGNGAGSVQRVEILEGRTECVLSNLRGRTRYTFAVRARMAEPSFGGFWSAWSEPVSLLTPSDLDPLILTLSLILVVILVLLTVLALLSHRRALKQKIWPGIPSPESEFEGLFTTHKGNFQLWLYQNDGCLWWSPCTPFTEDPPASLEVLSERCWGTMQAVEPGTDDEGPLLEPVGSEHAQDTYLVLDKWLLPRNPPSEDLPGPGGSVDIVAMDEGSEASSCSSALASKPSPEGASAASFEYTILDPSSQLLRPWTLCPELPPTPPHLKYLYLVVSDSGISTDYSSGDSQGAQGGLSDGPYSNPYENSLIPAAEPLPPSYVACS
In words: Reporter assay (fos promoter-driven luciferase). The following applies: murine pre-B-cell line expressing human EPO-R with luciferase reporter; 4 hr incubation; half-maximal relative to EPO. The text has this:
This assay was based upon a murine pre-B-cell line transfected to express human EPO-R and further transfected with a fos promoter-driven luciferase reporter gene construct. Upon exposure to EPO or another EPO-R agonist, such cells respond by synthesizing luciferase. Luciferase causes the emission of light upon addition of its substrate luciferin. Thus, the level of EPO-R activation in such cells may be quantitated via measurement of luciferase activity.
The activity of a test peptide was measured by adding serial dilutions of the test peptide to cells, which were then incubated for 4 hr. After incubation, luciferin substrate was added to the cells, and light emission was measured. The concentration of test peptide that results in a half-maximal emission of light, relative to that observed with EPO, was recorded as the EC50.
A general note: In a reporter assay the amount or activity of a reporter protein is the signal.

For assay [3], the target named is T1, human EPO-R. In words: Proliferation assay (MTT). The following applies: murine pre-B-cell line expressing human EPO-R, 48 hours incubation, half-maximal relative to EPO. How it is done:
This assay was based upon a murine pre-B-cell line transfected to express human EPO-R. Proliferation of this cell line is dependent on EPO-R activation. The degree of cell proliferation was quantitated using MTT, where the signal in the MTT assay is proportional to the number of viable cells. The activity of a test peptide was measured by adding serial dilutions of the test peptide to cells, which were then incubated for 48 hours. After incubation, MTT was added to the cells, and absorbance was measured. The concentration of test peptide that results in a half-maximal absorbance, relative to that observed with EPO, was recorded as the EC50.

Broadly, the EC90 is the point of the concentration-response curve where the effect stands at 90%. Lower therefore signals an effect from little substance. In assay [1], `CC[C@H](C)[C@@H]1NC(=O)[C@@H]2CCCN2C(=O)CNC(=O)[C@H](CCSC)NC(=O)[C@H](Cc2c[nH]cn2)NC(=O)[C@@H](NC(=O)[C@H](C)NC(=O)[C@H](Cc2ccc(O)cc2)NC(=O)[C@H](CC(C)C)NC(=O)CNC(=O)CNC(C)=O)CSSC[C@@H](C(=O)N[C@@H](CCC(N)=O)C(=O)N2CCC[C@H]2C(=O)N[C@@H](CC(C)C)C(=O)N[C@@H](CCCNC(=N)N)C(=O)N(C)CC(=O)N[C@@H](CCCCNC(=O)CN(CC(=O)NCCCC[C@H](NC(=O)CN(C)C(=O)[C@H](CCCNC(=N)N)NC(=O)[C@H](CC(C)C)NC(=O)[C@@H]2CCCN2C(=O)[C@H](CCC(N)=O)NC(=O)[C@@H]2CSSC[C@H](NC(=O)[C@H](C)NC(=O)[C@H](Cc3ccc(O)cc3)NC(=O)[C@H](CC(C)C)NC(=O)CNC(=O)CNC(C)=O)C(=O)N[C@@H](Cc3c[nH]cn3)C(=O)N[C@@H](CCSC)C(=O)NCC(=O)N3CCC[C@H]3C(=O)N[C@@H]([C@@H](C)CC)C(=O)N[C@@H]([C@@H](C)O)C(=O)N[C@@H](Cc3cccc4ccccc34)C(=O)N[C@@H](C(C)C)C(=O)N2)C(N)=O)C(=O)CCCC(=O)N(CCN)CCN)C(N)=O)NC(=O)[C@H](C(C)C)NC(=O)[C@H](Cc2cccc3ccccc23)NC(=O)[C@H]([C@@H](C)O)NC1=O` [Example 8 peptide (non-PEGylated)] gave an EC90 of 0.026 nM. By EC50 is commonly meant the midpoint of the concentration-response curve. “Compound V: As Example 10 but peptide monomer Ac-GGLYACHYGPIT(Nal)VCQPLR(MeG)K, SEQ ID NO: 23 (GGLYACHYGPITXVCQPLRXK; not fully specified; conjugate chemistry not built)”: the values for the EC50 in assay [2] and in assay [3] were 0.69 nM and 0.44 nM, respectively.
